The record followed here is publication PMC10746525.

To fix the notation:
B1: MBP-TRAK1_(342-431) [human] / MIRO1_(177-591) [human] (parent)
chain 1: EAQEELKNLRNKTMPNTTSRRYHSLGLFPMDSLAAEIEGTMRKELQLEEAESPDITHQKRVFETVRNINQVVKQRSLTPSPMNIPGSNQS
chain 2: EEKEMKPACIKALTRIFKISDQDNDGTLNDAELNFFQRICFNTPLAPQALEDVKNVVRKHISDGVADSGLTLKGFLFLHTLFIQRGRHETTWTVLRRFGYDDDLDLTPEYLFPLLKIPPDCTTELNHHAYLFLQSTFDKHDLDRDCALSPDELKDLFKVFPYIPWGPDVNNTVCTNERGWITYQGFLSQWTLTTYLDVQRCLEYLGYLGYSILTEQESQASAVTVTRDKKIDLQKKQTQRNVFRCNVIGVKNCGKSGVLQALLGRNLMRQKKIREDHKSYYAINTVYVYGQEKYLLLHDISESEFLTEAEIICDVVCLVYDVSNPKSFEYCARIFKQHFMDSRIPCLIVAAKSDLHEVKQEYSISPTDFCRKHKMPPPQAFTCNTADAPSKDIFVKLTTMAMYPHVTQADLKSST
B2: MBP-TRAK1_(342-431) [human] / MIRO1_(177-591) [human] (parent)
chain 1: B1 chain 2
chain 2: B1 chain 1

Variants of B1 are the subject of test [1]. Kind of test: ITC. Particulars: with MIRO1_(177-591) [human]; 370 µM MBP-TRAK1(342-431) 400KR401 to AA in syringe, 30 µM MIRO1(177-591) in cell; ITC buffer with 5 mM EGTA.
The variants in test [2] derive from B2. As to the kind of experiment: ITC. The conditions noted are these: with MIRO1_(177-591) [human]; 370 µM MIRO1(177-591) in syringe, 35 µM MBP-TRAK1(342-431) 400KR401 to AA in cell; ITC buffer with 5 mM EGTA.

For chain 1 K59A R60A, in test [1], the Kd is 9.62 µM and the screen value was 0.91.
chain 2 K59A R60A: in test [2], the Kd stood at 7.52 µM and the screen value was 0.74.
